We go through 20 molecules from PMC7952403 (Nature Communications, 2021).

Assay [1] deals with T1, SARS-CoV-2 RBD-SD1 with murine IgG2a Fc part, produced in High Five cells (SARS-CoV-2, UniProt P0DTC2).
T1 construct: source: High Five insect cells, transient transfection, purified (Protein A)
Briefly: ELISA. Conditions: both partners purified.

Assay [2] deals with T1, SARS-CoV-2 RBD-SD1 with murine IgG2a Fc …. Briefly: flow cytometry on cells. Particulars: both partners purified.

B1: STE73-6C8 scFv-Fc (scFv, V domains shown)
VH: QVQLQQSGAEVKKPGSSVKVSCKASGGTFSSYAISWVRQAPGQGLEWMGRIIPILGIANYAQKFQGRVTITADKSTSTAYMELSSLRSEDTAVYYCARSIAALNWFDPWGQGTLVTVSS
VL: NFMLTQPHSVSESPGKTVTIPCTGSRGSIANNYVQWYRQRPGRAPTTVIFEDNQRPSGVPDRFSGSIDRSSNSASLTISGLETEDEADYYCQSYDGSNVIFGGGTKLTVL
notes: also called scFv-hFc; source: Expi293F, transient transfection, purified (Protein A)
In turn, B1 returned an EC50 in assay [1] of 1.1 nM. In assay [2], this molecule registered an IC50 of 5.4 nM.

B2: STE73-6C8 IgG (antibody, V domains shown)
VH: QVQLQQSGAEVKKPGSSVKVSCKASGGTFSSYAISWVRQAPGQGLEWMGRIIPILGIANYAQKFQGRVTITADKSTSTAYMELSSLRSEDTAVYYCARSIAALNWFDPWGQGTLVTVSS
VL: NFMLTQPHSVSESPGKTVTIPCTGSRGSIANNYVQWYRQRPGRAPTTVIFEDNQRPSGVPDRFSGSIDRSSNSASLTISGLETEDEADYYCQSYDGSNVIFGGGTKLTVL
notes: source: Expi293F, transfected, purified (Protein A); copies: 2 + 2
In the case of B2, the EC50 in assay [1] was determined as 2.9 nM.

B3: STE72-4E12 IgG (antibody, V domains shown)
VH: QVQLVQSGAEVKKPGASVKVSCKASGYTFTSYYMHWVRQAPGQGLEWMGIINPSGGSTSYAQKFQGRVTMTRDTSTSTVYMELSSLRSEDTAVYYCARDLSGGLDYWGQGTLVTVSS
VL: ETTLTQSPATLSVSPGERVTLACRAGQTISSKLAWYRQKPGQAPSLLIYDASTRATGVPARFSGSGSGTEFTLTISSLQSEDFAVYYCQQYSDWPPTFGQGTKVEIK
notes: as for B2
For the molecule B3, in assay [1], the midpoint of the response, the EC50, lay at 1.6 nM.

B4: STE72-8E1 scFv-Fc (scFv, V domains shown)
VH: QVQLQEWGPGLVQPSETLSLTCTVSGGSISSGGYYWSWIRQHPGKGLEWIGRIYPSGSTNYNPSLKSRVTMSVDTSENQFSLKLSSVTAADTAVYYCARGGPKRSGSPFDVWGQGTMVTVSS
VL: EVVMTQSPSTLSASVGDRVTITCRASQTFGPWLAWYQQKPGQAPKLLIYMASELESGVPSRFSGSGSGTEFTLSISSLQPDDFATYYCQQYNTFSPWTFGQGTKVDIK
notes: as for B1
B4 had a concentration for a half-maximal effect (EC50) in assay [1] of 0.4 nM. In assay [2], this molecule showed a 50% inhibitory concentration (IC50) of 5.6 nM.

B5: STE73-2G8 scFv-Fc (scFv, V domains shown)
VH: QVQLVQSGGGLVKPGGSLRLSCAASGITVSSNYMSWVRQAPGKGLEWVSILYSGGTTFYTDSVKGRFTISRDNSKNTLHLQMNSLRAEDTAVYYCARWSGTYYDYWGQGTLVTVSS
VL: SSELTQDPAVSVALGQTVRITCQGDSLRSYYASWYQQKPGQAPVLVIYGKNNRPSGIPDRFSGSSSGNTASLTITGAQAEDEADYYCNSRDSTNDPVLFGAGTKLTVL
notes: as for B1
B5 yielded a 50% effective concentration (EC50) in assay [1] of 0.2 nM. In assay [2], this molecule returned an IC50 of 2.8 nM.

B6: STE73-2G8 IgG (antibody, V domains shown)
VH: QVQLVQSGGGLVKPGGSLRLSCAASGITVSSNYMSWVRQAPGKGLEWVSILYSGGTTFYTDSVKGRFTISRDNSKNTLHLQMNSLRAEDTAVYYCARWSGTYYDYWGQGTLVTVSS
VL: SSELTQDPAVSVALGQTVRITCQGDSLRSYYASWYQQKPGQAPVLVIYGKNNRPSGIPDRFSGSSSGNTASLTITGAQAEDEADYYCNSRDSTNDPVLFGAGTKLTVL
notes: as for B2
B6 gave an EC50 in assay [1] of 0.8 nM.

B7: STE73-6C1 scFv-Fc (scFv, V domains shown)
VH: QVQLVQSGGGVVQPGRSLRLSCAASGFTFSSYAMHWVRQAPGKGLEWVAVISYDGSNKYYADSVKGRFTISRDNSKNTLYLQMNSLRAEDTAVYYCARSYVGGMDVWGQGTTVTVSS
VL: QLVLTQSPSVSGAPGQSVTISCTGTDSNIGAGYNVHWYQQLPGAAPKLIISYTDNRPSGVPDRFSGSKSGTSASLAITGLQAEDEADYYCQSSDRTLVGSLFGTGTKVTVL
notes: as for B1
In the case of B7, a half-maximal response in assay [1] (EC50) required 0.6 nM. In addition, in assay [2], the 50% inhibitory concentration (IC50) worked out at 4.1 nM.

B8: STE73-9G3 IgG (antibody, V domains shown)
VH: QVQLQESGGGLVQPGGSLRLSCAASGFTFSSYAMSWVRQAPGKGLEWVSAISGSGGSTYYADSVKGRFTISRDNSKNTLYLQMNSLRAEDTAVYYCARDLVLGSGSSNDWGRGTLVTVSS
VL: QPVLTQPPSVSGAPGQSVTISCTGTDSNIGAGYNVHWYQQLPGAAPKLIISYTDNRPSGVPDRFSGSKSGTSASLAITGLQAEDEADYYCQSSDRTLVGSLFGTGTKVTVL
notes: as for B2
Molecule B8 gave a 50% effective concentration (EC50) in assay [1] of 0.4 nM.

B9: STE73-6C1 IgG (antibody, V domains shown)
VH: QVQLVQSGGGVVQPGRSLRLSCAASGFTFSSYAMHWVRQAPGKGLEWVAVISYDGSNKYYADSVKGRFTISRDNSKNTLYLQMNSLRAEDTAVYYCARSYVGGMDVWGQGTTVTVSS
VL: QLVLTQSPSVSGAPGQSVTISCTGTDSNIGAGYNVHWYQQLPGAAPKLIISYTDNRPSGVPDRFSGSKSGTSASLAITGLQAEDEADYYCQSSDRTLVGSLFGTGTKVTVL
notes: as for B2
For the molecule B9, in assay [1], the response was half-maximal at 14.1 nM (EC50).

B10: STE73-9G3 scFv-Fc (scFv, V domains shown)
VH: QVQLQESGGGLVQPGGSLRLSCAASGFTFSSYAMSWVRQAPGKGLEWVSAISGSGGSTYYADSVKGRFTISRDNSKNTLYLQMNSLRAEDTAVYYCARDLVLGSGSSNDWGRGTLVTVSS
VL: QPVLTQPPSVSGAPGQSVTISCTGTDSNIGAGYNVHWYQQLPGAAPKLIISYTDNRPSGVPDRFSGSKSGTSASLAITGLQAEDEADYYCQSSDRTLVGSLFGTGTKVTVL
notes: as for B1
On to B10, for which the EC50 in assay [1] is 0.4 nM. Also, in assay [2], 3.4 nM corresponded to half-maximal inhibition (IC50).

B11: STE70-1E12 scFv-Fc (scFv, V domains shown)
VH: QMQLVQSGAEVKKPGASVKVSCKASGYTFTGYYMHWVRQAPGQGLEWMGRINPNSGGTNYAQKFQGRVTMTRDTSTSTAYMELSRLRSDDTAVYYCVRDGYNFNNWFDPWGQGTLVTVSS
VL: NFMLTQPHSVSGSPGETITISCTGSGGSIASNYVQWYRQRPGSAPTIVIYEDTQRPSGVPDRFSGSIDSSSNSASLTISGLKTEDEADYYCQSSESTNHVMFGGGSKLTVL
notes: as for B1
B11 yielded an EC50 in assay [1] of 0.3 nM. In assay [2], this molecule gave an IC50 of 3.2 nM.

B12: STE70-1E12 IgG (antibody, V domains shown)
VH: QMQLVQSGAEVKKPGASVKVSCKASGYTFTGYYMHWVRQAPGQGLEWMGRINPNSGGTNYAQKFQGRVTMTRDTSTSTAYMELSRLRSDDTAVYYCVRDGYNFNNWFDPWGQGTLVTVSS
VL: NFMLTQPHSVSGSPGETITISCTGSGGSIASNYVQWYRQRPGSAPTIVIYEDTQRPSGVPDRFSGSIDSSSNSASLTISGLKTEDEADYYCQSSESTNHVMFGGGSKLTVL
notes: as for B2
Consider B12, for which the EC50 in assay [1] was determined as 0.3 nM.

B13: STE73-2E9 scFv-Fc (scFv, V domains shown)
VH: QVQLVQSGAEVKKPGASVKVSCKASGYTFTSYGISWVRQAPGQGLEWMGWISAYNGNTNYAQKLQGRVTMTTDTSTSTAYMELRSLRSDDTAVYYCARGKFDYWGQGTLVTVSS
VL: QSVLTQPPSVSEAPSQRVTISCSGSSSNIGNNAVNWYQQLPGKAPKLLIYYDDVLPSGVSDRFSGSKSGTSASLAISGLQSGDEADYYCAAWDDSLSGVVFGGGTKLTVL
notes: as for B1
B13 showed an IC50 in assay [2] of 3.4 nM.

B14: STE72-2G4 scFv-Fc (scFv, V domains shown)
VH: QVQLVQSGAEVKKPGASVKVSCKASGYTFTSYGISWVRQAPGQGLEWMGWISAYNGNTNYAQKLQGRVTMTTDTSTSTAYMELRSLRSDDTAVYYCARFFYDSSGYSTDYWGQGTLVTVSS
VL: ETTLTQSPAFMSVTPGDRAILSCRASQSVDSHLAWYHQKPGQPPRLLIYGASTRATGIPARFSGSRSGTEFTLTISGLQSEDLGVYYCQQYASWPPGYNFGQGTKLEIK
notes: as for B1
As to B14, the concentration giving a half-maximal response (EC50) in assay [1] turned out to be 0.2 nM. Also, the half-maximal inhibitory concentration (IC50) in assay [2] stood at 3.7 nM.

B15: STE73-2B2 scFv-Fc (scFv, V domains shown)
VH: QVQLVQSGAEVKKPGASVKVSCKASGYTFTGYYMHWVRQAPGQGLEWMGWINPNSGGTNYAQKFQGRVTITRDTSASTAYMELSSLRSEDTAVYYCARVSGWYFGAFDIWGQGTMVTVSS
VL: LPVLTQPHSLSESPGKTVNISCTGSSGSIASNYVQWYQQRPGSAPTTVIYEDSHRPSGVPDRFSGSIDSSSNSASLSISGLKTEDEADYYCQSYDSSNNQWVFGGGTKLTVL
notes: as for B1
B15: a half-maximal effect in assay [1] (EC50) was put at 0.2 nM. The molecule also had a 50% inhibitory concentration (IC50) in assay [2] of 1.7 nM.

B16: STE72-1G5 scFv-Fc (scFv, V domains shown)
VH: QVQLVQSGAEVKKPGASVKVSCKASGGTFSSYAISWVRQAPGQGLEWMGGIIPIFGTANYAQKFQGRVTITADESTSTAYMELSSLRSEDTAVYYCAVGGVQLWLTYWGQGTLVTVSS
VL: ETTLTQSPGALSLSPGERATLSCRVSQSLSSNSLAWYQQKPGQAPRLLIYDTSIRATGIPDRFSGSGSGTDFTLTISRLEPEDFAVYYCHKYGSWPRTFGQGTKVEV
notes: as for B1
The molecule B16 had an EC50 in assay [1] of 2.8 nM.

B17: STE73-2C2 scFv-Fc (scFv, V domains shown)
VH: QVQLVESGGGLVQPGGSLRLSCAASGITVSSNYMSWVRQAPGKGLEWVSVIYSGGSTFYADSVKGRFTISRDNSKNTLYLQMNSLRAEDTGVYYCARGHDNLDYWGQGTLVTVSS
VL: LPVLTQPHSVSESPGKTVIISCTGSSDSIASNYVQWYQQRPGSAPTTVIYEDNKRPSGVPDRFSGSTDSSSNSASLTISGLKTEDEAEYYCQSYDSNNHWVFGGGTKLTVL
notes: as for B1
On to B17, for which the EC50 in assay [1] came out at 3.1 nM. Besides, inhibition in assay [2] was half-maximal at 3 nM (IC50).

B18: STE72-4C10 scFv-Fc (scFv, V domains shown)
VH: EVQLQESGGGVVQPGRSLRLSCAASGFTFSSYAMHWVRQAPGKGLEWVAVISYDGSNKYYADSVKGRFTISRDNSKNTLYLQMNSLRAEDTAVYYCAREYSSSWYGLGAFDIWGQGTMVTVSS
VL: DIRLTQSPSSLSASVGDRVTITCRASQNIHYYLNWYQQKPGKAPSLLVYGASSLQSGVPSRFSGSGSGTEYTLTISSLQPEDFATYFCQQSFKSPATFGQGTKVDIK
notes: as for B1
The molecule B18 registered a 50% effective concentration (EC50) in assay [1] of 0.5 nM. Further, the midpoint of inhibition in assay [2], the IC50, lay at 3.5 nM.

B19: STE72-1B6 scFv-Fc (scFv, V domains shown)
VH: QVKLVQSGGGLVQPGGSLRLSCAASGFTFSSYAMSWVRQAPGKGLEWVSGISGSGGSTYYADSVKGRFTISRDNSKNTLYLQVNSLRAEDTAVYYCAKAPYGDFRGLWYFDYWGQGTLVTVSS
VL: DIVMTQSPFSVSASVGDRVTISCRASQDIRSWLAWYQQKPGKAPQLLIYDASSLQSGVPSRFSGSGSGTDFTLTISSLQPEDFATYYCQQADSVPLTFGGGTKVEIQ
notes: as for B1
Regarding B19, it took 0.5 nM to reach a half-maximal effect in assay [1] (EC50). For the same molecule, the IC50 in assay [2] amounted to 4.8 nM.

B20: STE72-1B6 IgG (antibody, V domains shown)
VH: QVKLVQSGGGLVQPGGSLRLSCAASGFTFSSYAMSWVRQAPGKGLEWVSGISGSGGSTYYADSVKGRFTISRDNSKNTLYLQVNSLRAEDTAVYYCAKAPYGDFRGLWYFDYWGQGTLVTVSS
VL: DIVMTQSPFSVSASVGDRVTISCRASQDIRSWLAWYQQKPGKAPQLLIYDASSLQSGVPSRFSGSGSGTDFTLTISSLQPEDFATYYCQQADSVPLTFGGGTKVEIQ
notes: as for B2
Molecule B20 gave an EC50 in assay [1] of 1.1 nM.

In general, EC50 refers to the concentration needed to bring the measured effect to its halfway point. The term IC50 denotes the concentration that inhibits the measured activity by half.
